The results in this text go back to paper PMC2250751.

Test [1] has as its target I113T SOD1 (human) (UniProt P00441). The test is described as follows: SEC; metal-free (apo) form at time zero, before incubation; gel filtration chromatography. For orientation: In gel filtration, larger molecules generally elute earlier.
The target is the same in test [2]. The test is described as follows: SEC; zinc-reconstituted form; gel filtration chromatography; 100 µM (as dimer), 20 mM phosphate pH 7; no larger species also after more than a month at 37°C.
Test [3] concerns the target T54R SOD1 (human) (UniProt P00441). The test is described as follows: SEC; metal-free (apo) form at time zero, before incubation; gel filtration chromatography.
Test [4] shares this target. As to the kind of experiment: SEC; zinc-reconstituted form; gel filtration chromatography; 100 µM (as dimer), 20 mM phosphate pH 7; no larger species also after more than a month at 37°C.
For test [5], the target named is V87M SOD1 (human) (UniProt P00441). As to the kind of experiment: SEC; metal-free (apo) form at time zero, before incubation; gel filtration chromatography.
Test [6] has the same target. The test is described as follows: SEC; zinc-reconstituted form; gel filtration chromatography; 100 µM (as dimer), 20 mM phosphate pH 7; no larger species also after more than a month at 37°C.
Test [7] concerns the target I113F SOD1 (human) (UniProt P00441). As to the kind of experiment: SEC; metal-free (apo) form at time zero, before incubation; gel filtration chromatography.
Test [8] shares this target. The test is described as follows: SEC; zinc-reconstituted form; gel filtration chromatography; 100 µM (as dimer), 20 mM phosphate pH 7; no larger species also after more than a month at 37°C.
Test [9] addresses V97M SOD1 (human) (UniProt P00441). The test is described as follows: SEC; metal-free (apo) form at time zero, before incubation; gel filtration chromatography.
For test [10] the target is unchanged. The test is described as follows: SEC; zinc-reconstituted form; gel filtration chromatography; 100 µM (as dimer), 20 mM phosphate pH 7; no larger species also after more than a month at 37°C.
In test [11] the target is D90A SOD1 (human) (UniProt P00441). The test is described as follows: SEC; metal-free (apo) form at time zero, before incubation; gel filtration chromatography.
For test [12] the target is unchanged. The test is described as follows: SEC; zinc-reconstituted form; gel filtration chromatography; 100 µM (as dimer), 20 mM phosphate pH 7; no larger species also after more than a month at 37°C.
Test [13] has as its target G93D SOD1 (human) (UniProt P00441). The test is described as follows: SEC; metal-free (apo) form at time zero, before incubation; gel filtration chromatography.
For test [14] the target is unchanged. As to the kind of experiment: SEC; zinc-reconstituted form; gel filtration chromatography; 100 µM (as dimer), 20 mM phosphate pH 7; no larger species also after more than a month at 37°C.
The target in test [15] is L67V SOD1 (human) (UniProt P00441). The test is described as follows: SEC; metal-free (apo) form at time zero, before incubation; gel filtration chromatography.
Test [16] shares this target. The test is described as follows: SEC; zinc-reconstituted form; gel filtration chromatography; 100 µM (as dimer), 20 mM phosphate pH 7; no larger species also after more than a month at 37°C.
Test [17] concerns the target G93A SOD1 (human) (UniProt P00441). As to the kind of experiment: SEC; metal-free (apo) form at time zero, before incubation; gel filtration chromatography.
The target is the same in test [18]. As to the kind of experiment: SEC; zinc-reconstituted form; gel filtration chromatography; 100 µM (as dimer), 20 mM phosphate pH 7; no larger species also after more than a month at 37°C.
The target of test [19] is I35T SOD1 (human) (UniProt P00441). The test is described as follows: SEC; metal-free (apo) form at time zero, before incubation; gel filtration chromatography.
For test [20] the target is unchanged. As to the kind of experiment: SEC; zinc-reconstituted form; gel filtration chromatography; 100 µM (as dimer), 20 mM phosphate pH 7; no larger species also after more than a month at 37°C.
In test [21] the target is L144F SOD1 (human) (UniProt P00441). The test is described as follows: SEC; metal-free (apo) form at time zero, before incubation; gel filtration chromatography.
Test [22] shares this target. As to the kind of experiment: SEC; zinc-reconstituted form; gel filtration chromatography; 100 µM (as dimer), 20 mM phosphate pH 7; no larger species also after more than a month at 37°C.

Usually stoichiometry N stands for the number of molecules, sites or subunits per partner or assembly. For the substance “I113T SOD1 (from UniProt P00441 8-154) (enzyme)”, the stoichiometry N in [1] and in test [2] was 2 each time.

Take “T54R SOD1 (from UniProt P00441 8-154) (enzyme)”: the stoichiometry N in test [3] and in [4] was 2 in each case.

Turning to “V87M SOD1 (from UniProt P00441 8-154) (enzyme)”, the stoichiometry N in test [5] and in test [6] was 2 each time.

Regarding “I113F SOD1 (from UniProt P00441 8-154) (enzyme)”, the stoichiometry N in test [7] and in test [8] was 2 each time.

With “V97M SOD1 (from UniProt P00441 8-154) (enzyme)”, the stoichiometry N in [9] and in test [10] was 2 throughout.

On to “D90A SOD1 (from UniProt P00441 8-154) (enzyme)”, for which the stoichiometry N in [11] and in test [12] was 2 in each case.

As to “G93D SOD1 (from UniProt P00441 8-154) (enzyme)”, the stoichiometry N in test [13] and in test [14] was 2 throughout.

For the substance “L67V SOD1 (from UniProt P00441 8-154) (enzyme)”, the stoichiometry N in test [15] and in test [16] was 2 in each case.

Consider “G93A SOD1 (from UniProt P00441 8-154) (enzyme)”, for which the stoichiometry N in test [17] and in [18] was 2 throughout.

For the substance “I35T SOD1 (from UniProt P00441 8-154) (enzyme)”, the stoichiometry N in test [19] and in test [20] was 2 throughout.

As for “L144F SOD1 (from UniProt P00441 8-154) (enzyme)”, the stoichiometry N in [21] and in [22] was 2 throughout.
